Assay results taken from patent US20260207669A1 (TIANJIN MEDICAL UNIVERSITY GENERAL HOSPITAL, published 2026).

T1: human BAFFR overexpressed on 293T cells (human, UniProt Q96RJ3 1-184)
T1 construct: whole, on cells
T1 sequence (looked up): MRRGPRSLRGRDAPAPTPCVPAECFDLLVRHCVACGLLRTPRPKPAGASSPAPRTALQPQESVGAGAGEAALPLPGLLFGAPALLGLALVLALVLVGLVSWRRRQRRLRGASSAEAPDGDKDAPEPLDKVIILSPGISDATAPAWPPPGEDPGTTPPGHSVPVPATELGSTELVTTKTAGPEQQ

B1: NB467-88 (Fc fusion)
chain: EVQVVESGGGLVQPGGSLRLSCAASGFRLNYYAIGWFRQAPGKEREGVSCISSGGDRIYYADSVKGRFTISRDNAKNTVYLQMNSLKPEDTAVYYCAADLYYSGSYYYRSCNPAESGYWGQGTQVTVSS
notes: also called anti-BAFFR nanobody NB467-88; antibody NB467-88; not shown: Human IgG1 Fc fused to the VHH
B2: NB467-71 (Fc fusion)
chain: EVQVVESGGGLVQSGGSLRLSCVASGFNLDHYAIGWFRQIPGKEREGVSCISSGGDSTFYIDSVKGRFTISRDNAKNTVYLQMNSLKPEDTAVYHCAADVYYSGNYLYRSCNPHESKYWGQGTQVTVSS
notes: also called anti-BAFFR nanobody NB467-71; antibody NB467-71; not shown: Human IgG1 Fc fused to the VHH
B3: NB467-7 (Fc fusion)
chain: QVQLVESGGGSVHPGGSLRLSCAGSGFTLAGYAIGWFRQAPGKEREGVSCINSSGGSTYYADSVKGRFTISRDNAKNTVYLQMNSLKPEDTAVYYCAADVYYSGSYLYRSCNPTESKYWGQGTQVTVSS
notes: also called anti-BAFFR nanobody NB467-7; antibody NB467-7; not shown: Human IgG1 Fc fused to the VHH

What follows are binders tested against T1, human BAFFR overexpressed on 293T cells (assay: flow cytometry on HEK-293T-BAFFR cells, anti-human Fc-647 secondary antibody).
Experimental: The cells were resuspended in a suitable volume of staining solution for flow cytometry, so that the final cell concentration per tube reached 2×10⁵ cells/mL.
The antibodies NB467-7, NB467-71, and NB467-88 produced in Example 1 and the control antibody were diluted to 200 nM, respectively. […] After incubation, the cells were washed once with a FACS buffer.
The anti-human FC-647 secondary antibody (Jackson, 109-605-003) was diluted according to the instructions, and 100 μL of the diluted secondary antibody was added to a sample tube. After uniform mixing, the system was incubated at 4° C. for 60 min. After incubation, the cells were washed 3 times with FACS, and the cell precipitate obtained by centrifugation was resuspended in 200 μL of PBS and detected by flow cytometry (Sony, SA3800).

Row | EC50 | Binder
1 | 1.31 nM | B1
2 | 10.6 nM | B2
3 | 6.73 nM | B3
